This series can be described thus: soluble fraction after stress (log2 fold change); higher = more stays soluble; pooled small domains, quantitative proteomics. Particulars: stress: 50 degC. In outline: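 The measure of aggregation propensity here is the base-two logarithm of the fold change in the soluble amount of each protein after stress. A higher value means more of that protein stays in solution. Stress was applied at 50°C to pooled libraries of small protein domains, read out by high-throughput quantitative proteomics.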

For the sequence “HMPTQGELAILRVLWEQGPSTVRAVWEKLNSQSGTGYTTALKLMQIMAQKGLVSRDESQKTHVYRA”, the “soluble fraction (log2)” value is -1.42. For the sequence “HMNADRIVGQTAKVIHPITPDEKGRVMVDNLDWAAAAQNRGESFEVGEEVSIVRIEGVTVYVQK”, the “soluble fraction (log2)” value is 0.209.

With “HMDERLAKLTPQERKILDLIAEGATNRQIGTELHLAEKTVKNYVSNMLMKLGMSRRTEAAVFAVKASIN”, the “soluble fraction (log2)” value is -0.64. Take “HMFPDLSPEQQRIVDVLTKSNDLQLNQLSVKTGIPIGDITSILFQMEMMGVVKPMAGGNYHLL”: the “soluble fraction (log2)” value was -1.36.

Regarding “HMQITTVSPKNYAEAELIGQRFREGNPVVMDLSKLDSDLGQRLVDFASGLVFALNGTVERIAKKVFLLSP”, the “soluble fraction (log2)” value is -0.943. Regarding “HMGESVQVPSYVGMGFREAARKARARDFGVAVSDSIYVPGKPPGEIIAQDPKAESRVKEGRTIYFTVAK”, the “soluble fraction (log2)” value amounted to 0.0425. For “HMITNSTEIEAMIDSLIKENPEQAEQYRNGNTKVVGWFVGQMMKASKGKANPQVVGDLLAQKLVG”, the “soluble fraction (log2)” value came out at 0.0323.

Regarding “HMDPSVTGLLTRLGISPQTAQELAGQYEEPYILEKIAIVEAHPEYVKNAAGFVITALQEDWKD”, the “soluble fraction (log2)” value was -0.255. The same measure for “HMQKVPDAFKAEQVQTLITRLGVSRAELARTLDVSLSTVNKWASGAVEPKGSALVLLKVLWMHGFKAL”: -2.14; for “HMSYIGEEKAKSIAVSNVKGAGTNNVVKVEFDYDDGRAVYEVKVVYNAMEYEFEIDASNGKILSRDAESIY”: -0.309.

Consider “HMAHKYYSIMRPVSIGTFPDNGTILGIVNFDTRQMVESIGKMAWGYINYGKPLTEKQISDYELVAE”, for which the “soluble fraction (log2)” value was -0.451.

For “HMIETLGDATFKRLKAMILDGTLEPGTRLSEKKFADHLGVSRTPVREAIGQLVSEGLAKRSAGSAPVVSS”, the “soluble fraction (log2)” value came out at 0.0372. Take “HMKIETVENPLLERTEISALFDSKSGSLTRKEAIDLISKKARIDSSTVYAIKLSNSSGSTRIIGLFY”: the “soluble fraction (log2)” value came out at 0.0692. Regarding “HMTDSDTQDIDVGELRVGHFVFLDLSWIRHPFPLSSFKIQSAEQIKTIRSLGLRRIRYSPGRSGP”, the “soluble fraction (log2)” value was -1.18. Next, “HMEALGLSPRQVDVLRLLVEGRSNKMIMRELELSESTVKTHLQAIFRRLGVSSRTQAVVAAARLGL”: -1.25; “HMFDFMVLGQAIKKARESKEMTREQLAEILDVAPRHIQSIENEGQYPSFPLFIRLVTMFNISVDQY”: -1.92. The same measure for “HMSEYIFGKNVVKEAFNNPSRIEEIYVLDKNMEFVSLAKKYHIKYTVITSSEMNKMVSGNHQGVVALVK”: -0.277. In the case of “HMDYNYLVFVTNTGPRSIAVEDLEMTVSDGKLVVSSGADGETFDLSTLTKMYFSDAAVVSINDV”, the “soluble fraction (log2)” value was -0.996. The same measure for “HMDRWTPLVVAVLSRGSHRFGELRAAIGGITPKVLTDTLRSMERDGLITRDQAPGVPPRVDYALTPLGS”: -1.12; for “HMDSGFMRTTQSYTVARLAEIFRLSGEDYLAVLREYDGWYQDLTSTKDLIRKGSDVPVPEGV”: -1.61; for “HMTADIRFLNSRKFYIYKVEKGETLFSISQKFNIPQEEIIQFNKDINQQGLKAKTKLWVPAYSWL”: -3.38. “HMAMDYYAIGQRIRKFRKAHDWSQEELAEKVEISTTHMSHIETGSTKLSLPVLVSLANVLDVRTDDLLF”: the “soluble fraction (log2)” value is -3.88. For “HMKSAYADVAIAKVQDYVNVRAENNEDSEVLGKLYNNSAATVLETTDDGWYKISSGSVTGYVKSEYVVVG”, the “soluble fraction (log2)” value came to 0.0784.

Turning to “HMFNPEQDPKQLTGRERAVADLIGLGANNAEIAIRLSMSERTVKAHLTSIFQQLNVRDRVQLALVMNQL”, the “soluble fraction (log2)” value is -0.585. Regarding “HMDDVIDVYATYDVSPTNQISNIKLYSDAAHANPVTGEAGKSYNDITEGHPGYQFRWSGTTWVPI”, the “soluble fraction (log2)” value was -0.295. “HMVWINIRDLSDLFSKSGKSENSKNILDLQTLKIEKLLGGGQINTPYTIKVKQATPSAIEKVKQAGGEVIL”: the “soluble fraction (log2)” value was -0.0218. For “HMNSEAVQNVIDKISALPDDITAKAKSQIEEARAAYEALSDSEKARVTNYSTLVAAEKKLASVVKD”, the “soluble fraction (log2)” value worked out at 0.325. In the case of “HMEDESSIERYLGSGAIKGIGPSLAARIVKKFGKDTFRIIEQEPERLAEIKGISERKAMEISTLMEEK”, the “soluble fraction (log2)” value amounted to 0.0193. Consider “HMKRVPFAFAGDMLRWAAWLYHVEKRTQNEIAEELEVSRQTVANYLSEAMSQGLVQVQLRSDIIE”, for which the “soluble fraction (log2)” value is -1.52. Turning to “HMEMLQENIRNLRKAKGWSQEELAIKLNVVRQTVSKWEKGLSVPDSQMLIRIADELDTTVAILLG”, the “soluble fraction (log2)” value is -0.246.

As to “HMEFPLSPHQYSVLRLMAQGLSNKQIAERLFLSENTVKGYVQEVLRRLGARNRLEAVMIANRRGWL”, the “soluble fraction (log2)” value was -0.112. Turning to “HMELEAFPNPTDMFLSFTTKEKTPLAIYDINGKQVLYVEQITSSSKINVSKLSEGVYFAKTNQGTVKWVK”, the “soluble fraction (log2)” value is -1.67. Turning to “HMAPRASDALTERELDVLRVVADGASVAEAAEMLVVSRETVKKHLGNIYAKLGVHSKMQAVALLREEGV”, the “soluble fraction (log2)” value is -0.147. Next, “HMPGVTTQLHRLNGTEETYIIKRGDGVLEIDGEKSELQLGDAIIIPAGASQKISNIGDEDLE”: -0.346; “HMRHYVLKENNGVIAIYKVNQENEAVFKENTQIQVQYLPEVDLINLKKGIYAIGEEKLNSILEDF”: -0.613.

As to “HMQISDDSELIKIVDNILANSQKQIDDYHNGKTNLFGFFVGQVMKETKGKANPVKVNEILKDKL”, the “soluble fraction (log2)” value was found to be 0.00641.

As for “HMKVEFDAMDKRILELMAKEYDTVLMARHLPLTPIVIDVRKKRIREVLNLPDATDAEIVIEAKEKDII”, the “soluble fraction (log2)” value was -0.322. Next, “HMEESEMIAFATVAHRIVGKPVEAVMRSYRNRDNIPADIAAIVSSKFTFSVTMAEASYRNPKKSYQVNSII”: -0.00943; “HMGQKETIVDLLKTNGTMTQLALAEAIYGDKNHGPNIYSVLMGRVNSGAVLRTGSQPAYYSLSG”: 0.0821; “HMVEDIVLTDAQIEFVKQQAKNGLSAFQISEMIWPEMSVKRFSKQHVAVLDFLREYEPAYVHDSE”: 0.00709.

Consider “HMSKHATLLEALAELTVKLKPHTQLPSERQLSEDFGVSRMTLRRAIDVMQSRGYIYTVPSKGLYVSEP”, for which the “soluble fraction (log2)” value was -1.59. Turning to “HMNINVRNTGIKAVENNIINLSSDQRTFTWASNDRKLITVPFDENPYSALAAWFKTDEGIEVYQTIEKKL”, the “soluble fraction (log2)” value was -0.115.

With “HMEEIPYGVISAKAGAAAYDYIKKSIELGIEKKIDGVATAPIQKEAIHMAGISYIGHTEMYQGIT”, the “soluble fraction (log2)” value amounted to 0.0739. Regarding “HMARRLELEDIPVDEVLFTASRNLVDAIEVMDPSRQAPMIQPWLKQALEWAVGALGFSKEDAVATLTSD”, the “soluble fraction (log2)” value is -0.0273.

With “HMETPDLTQLNPILDEYRGQKGAVIPVLQKAQKIYGFLPPEVLRRIAAGMRVPLSKIYGVATFYSQFY”, the “soluble fraction (log2)” value came out at 0.0579. On to “HMSSSLDQLTVREREILAQVSRGLSNKAIARELGISHDTVKLHVRHILSKLGFSSRVEAAVFAIEHRIG”, for which the “soluble fraction (log2)” value is -1.72. With “HMGGGFLVPSLVGKSLEEARSLSELRGFKLEVGDYVISSEYPAGRVTRQNPANGAKGQEGDVIKVEVSS”, the “soluble fraction (log2)” value amounted to 0.0353. For “HMGTELSYSEFLNKVEAGEVTNVTIRGPEITFQTGNSSYTTYAPDDPKLIEHLTAKGVAIKAGP”, the “soluble fraction (log2)” value is 0.216. “HMIELEGVISSVLAGTMFKVKLRGNGHEVLAHISGKMRKKFIRLVIGDAVKIEMSPYDMDKARIVYRI”: the “soluble fraction (log2)” value was -0.00875. For the sequence “HMKHTVSVDRLQPGVFVSLGGLSWLDHPFLLNRFRLTDHDQIKVLRSLGVKEIEWDPTRSTAQPLPE”, the “soluble fraction (log2)” value was -0.437.

The record behind these values is the domain aggregation screens of Martell et al. (2025).
